Experimental data published in PMC8750329.

Assays:
[1] = molecular target: P. clarkii crustacyanin A2 (PcCRA2) (Procambarus clarkii); test: SEC + other: SDS-PAGE; fraction F2, 1 mg/mL, TSK-gel G3000SWxl, 20 mM sodium phosphate pH 7.0, 0.7 mL/min, calibrated with a protein standard mix; native mass about 43 kDa against a single 21 kDa band on SDS-PAGE
[2] = molecular target: P. clarkii crustacyanin A2 (PcCRA2) (Procambarus clarkii); test: SEC + other: SDS-PAGE; fraction F1, 1 mg/mL, TSK-gel G3000SWxl, 20 mM sodium phosphate pH 7.0, 0.7 mL/min, calibrated with a protein standard mix; native mass about 170 kDa against a single 21 kDa band on SDS-PAGE

## P. clarkii crustacyanin A2 (PcCRA2) (natural protein)
[1]
  stoichiometry N: 2
[2]
  stoichiometry N: 8
